Laboratory results as given in patent US20220380473A1, “ANTI-GAL3 ANTIBODIES AND USES THEREOF” (TrueBinding, Inc., priority 2019, published 2022).

Assays:
4T1 cells = experiment: 4T1 orthotopic tumor induced lung metastasis model; assay type: in vivo, mouse; settings: 10 mg/Kg i.p., day 30, vs isotype control
Procedure: On the day of tumor implantation, 4T1 cells were collected, washed and resuspended in PBS. Mice were anesthetized by inhalation anesthetic (3 to 5% Isoflurane in medical grade air). 2×10^5 cells in 0.1 mL PBS were subcutaneously injected into the mammary gland by using a syringe with a 25-ga needle. Mice were randomly assigned into two groups (n=10). […] The tumor volumes and body weights were monitored twice per week. On day 30, the mice were humanely sacrificed and lung tissues were inflated with 30% sucrose, removed and fixed in Bouin's solution (Sigma-Aldrich). […] Results were expressed as mean±SEM.

[1] = test system: MCD mouse model of liver fibrosis; experiment: Methionine-choline deficient (MCD) mouse model of liver fibrosis; assay type: in vivo
Text: To further investigate the ability of GAL3-TIM3 blocking antibodies to influence liver fibrosis, the methionine-choline deficient (MCD) mouse model of liver fibrosis was employed. Briefly, Six-week-old male C57Bl/6 mice (Jackson Laboratory) were fed either a normal diet (Envigo, #2020X; n=5 mice); or MCD diet (Fisher Scientific, #MP296043910, n=25) for 8 weeks and continuously through the remainder of the study. Mice were divided into three groups (7 mice each) and randomized based on ALT score. Group 1 and 2 were treated mouse anti-mIgG2aLala isotype control (mISO, 10 mg/kg) or mouse anti-Gal3 antibody (mIMT001, 10 mg/kg) twice a week of IP injection for 4 weeks, at which time animals were sacrificed and liver specimens were collected, fixed in 4% paraformaldehyde (Electron Microscopy Sciences, Cat #15710S) for 24 hours, transferred to 70% EtOH for 72 hours, and samples were subsequently embedded in paraffin. […] Brightfield images were acquired under a Revolve microscope (Discover Echo, Inc.).
To assess fibrosis in these specimens, tissue sections were evaluated for the deposition of fibrotic collagen deposits by picosirius red staining. Briefly, after deparaffinization, liver specimens from isotype control- or IMT001-treated MCD mice were rehydrated in serial ethanol baths, sections were stained in 0.01% Fast green FCF Solution (Cat #1.04022.0025 MilliporeSigma) in saturated picric aqueous solution for 15 minutes at room temperature, followed by 1 h incubation at room temperature in 0.04% Fast green FCF/0.1% Sirius red in saturated picric aqueous solution, prior to their dehydration, clearing and mounting. Images were quantitated using ImageJ software (Rasband, W. S., ImageJ, U. S. National Institutes of Health, Bethesda, Md., USA, world wide web.imagej.nih.gov/ij/)

[2] = molecular target: T1, association of GAL3 and TIM3 (Homo sapiens, UniProt P17931); experiment: GAL3-TIM3 blocking ELISA (Examples 24, 27); assay type: binding; settings: 3 ug/mL antibody
T1 construct: full-length human Galectin-3 protein (Acro Biosystems, GA3-H5129); linker-spaced 6-histidine tag; purchased Acro Biosystems GA3-H5129 (Gal3); TM3-H5229 (TIM-3)
T1 sequence (P17931 2-250 limits assumed): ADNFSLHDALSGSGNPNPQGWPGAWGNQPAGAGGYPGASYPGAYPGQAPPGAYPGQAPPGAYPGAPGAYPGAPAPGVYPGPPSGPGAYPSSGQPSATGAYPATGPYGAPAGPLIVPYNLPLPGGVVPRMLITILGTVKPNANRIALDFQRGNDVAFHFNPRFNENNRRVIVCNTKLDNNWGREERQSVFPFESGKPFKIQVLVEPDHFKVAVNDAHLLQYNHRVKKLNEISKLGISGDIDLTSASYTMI
Procedure: Positively scoring wells were evaluated for the ability to block association of GAL3 and TIM3. To identify GAL3-targeted antibodies with the ability to block the interaction of GAL3 and TIM3, purified GAL3 and TIM3 proteins were incubated in the presence of GAL3-immunization hybridoma supernatants described above, or without antibody, and protein interaction was evaluated by ELISA. Human Galectin-3 protein (Acro Biosystems, GA3-H5129) was diluted in PBS (Corning, 21-030-CM) to a concentration of 3 μg/ml and added to the wells of a 96-well ELISA plate (Thermo Fisher, 44-2404-21). After incubating the plate at 4° C. overnight, the plate was washed three times with PBST (PBS with 0.05% Tween 20 [VWR, 0777]). The plate was then blocked for an hour with 2% BSA (EMD Millipore, 126609) in PBST at room temperature with gentle rocking. Thereafter, the 2% BSA in PBST was discarded and antibody or inhibitor (3-fold dilutions beginning at 20 μg/ml, 60 μg/ml, or 180 μM) in 2% BSA in PBST was added to the wells. Afterwards, 2 μg/ml of human TIM3 (Aero Biosystems, TM3-H5229) in 2% BSA in PBST was added to the antibody or inhibitor in the wells in a 1:1 ratio. The plate was incubated for an hour at room temperature with gentle rocking. Thereafter, the plate was washed three times with PBST, and 0.3 μg/ml of human TIM3 Biotinylated Antibody (R&D Systems, BAF2365) in 2% BSA in PBST was added to the wells. The plate was incubated for an hour with gentle rocking and then washed three times with PBST. Avidin-HRP (1:2000) was then added to the wells. The plate was incubated at room temperature for an hour with gentle rocking and then washed three times with PBST. TMB substrate (Thermo Scientific, 34029) was then added to each well. The reaction was stopped with 1M HCl (JT Baker, 5620-02) and read using a plate reader (Molecular Devices) at absorbance of 450 nm.

human Gal3-His = human Gal3-His (Homo sapiens, UniProt P17931); experiment: Antibody binning by biolayer interferometry (Gator); assay type: binding; settings: antibody competition
Chain of human Gal3-His (P17931 whole entry): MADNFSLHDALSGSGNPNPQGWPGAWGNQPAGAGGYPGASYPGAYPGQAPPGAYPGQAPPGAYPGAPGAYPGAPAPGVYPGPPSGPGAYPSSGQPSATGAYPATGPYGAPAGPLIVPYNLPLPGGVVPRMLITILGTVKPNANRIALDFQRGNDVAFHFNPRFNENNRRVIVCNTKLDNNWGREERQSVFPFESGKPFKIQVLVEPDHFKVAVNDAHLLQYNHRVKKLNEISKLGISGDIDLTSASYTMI
Procedure: To determine whether Gal3-binding antibodies with Gal3-TIM3 blocking activity bind to the same or overlapping regions of the Gal3 molecule, antibody binning assays were performed to assess the ability of antibodies to simultaneously bind Gal3. Amine-reactive probes were loaded onto a Gator biosensor (Probe Life, Palo Alto, Calif.), equilibrated in dH20 for 60 seconds, dipped into 100 μl EDC 0.2M/NHS 0.05M activation buffer for 30 seconds, then dipped into a solution of […] human Gal3-His in 10 mM NaOAc buffer, pH 5 until binding was saturated, and quenched in 1 M ethanolamine pH 8.5 for 300 seconds. Following Gal3-His loading, tips were dipped in 20 μg/mL saturating antibody, then successively dipped into 5 μg/mL competing antibody.

[3] = 10 mg/kg twice a week IP for 4 weeks

B1: IMT001: anti-Gal3 monoclonal antibody (Immutics); printed as mIMT001 (IMT001), murine (antibody, V domains shown)
VH: QIQLVQSGPELKKPGETVKISCKASGYTFTNYGMNWVKQAPGKGLKWMGWINTNTGEPTYVEEFKGRFAFSLETSASTAYLQINNLKNEDTATYFCAPYDNFFAYWGQGTLVTVSA
VL: DIVITQDELSNPVTSGESVSISCRSSKSLLYKDGKTYLNWFLQRPGQSPQLLIYLMSTHASGVSDRFSGSGSGTDFTLEISRVKAEDVGVYYCQQLVDYPLTFGAGTKLELK
- lung metastatic number (4T1 cells): significant reduction of lung metastatic number
- apoptotic ballooning cells, image-based quantification [1, 3]: 0.98
- infiltrating lobular immune cells, image-based quantification [1, 3]: 0.73
- steatosis, image-based quantification [1, 3]: 1
- NAS score ([1]; integrated score): 2.72
- picosirius red staining, % of the tissue area ([1]; liver sections): 1.25%
- reduction of ballooning ([1]; vs control-treated): 27%
- reduction of lobular immune cells ([1]; vs control-treated): 59%
- reduction of steatosis ([1]; vs control-treated): 15%
- reduction of NAS score ([1]; vs isotype control): 43%
- reduction of picosirius red staining ([1]; vs isotype control): 71%
- GAL3-TIM3 Blocking @ 3 ug/mL [2]: 80%
- Bin (human Gal3-His): 1
